# Source: patent US20020055615A1
# Ends that are not written are not given here.
# Tests used:
# [1] = molecular target: AM receptor (AM-R) on human tumor cell lines (human); assay: 125I-AM (0.2 nM per 5×10^5 cells) binding to NCI-H1264 cells
# [2] = molecular target: AM receptor (AM-R) on human tumor cell lines (human); assay: cell-based or functional assay
# [3] = molecular target: AM receptor (AM-R) on human tumor cell lines (human); assay: displacement of 125I-AM from MCF-7 cells by unlabelled AM
# [4] = molecular target: AM receptor (AM-R) on human tumor cell lines (human); assay: receptor binding on MCF-7 cells
binder,measurement,setting,value
"adrenomedullin (AM) (peptide, UniProt P35318 95-146, looked up, ends and bridges not checked; also: 125I-labelled as tracer in receptor assays) peptide: YRQSMNNFQGLRSFGCRFGTCTVQKLAHQIYQFTDKDKDNVAPRSKISPQGY-NH2",radioactivity bound (cpm),[1],2260 cpm
same,increase in cellular cAMP (ED50),[2],5 nM
same,maximum elevation of cellular cAMP (fold of control),[2],3
same,IC50,[3],10 nM
same,Kd,[4],2 nM
